Laboratory results reported in patent US20220204580A1 (AstraZeneca / MedImmune, published 2022).
Numbered stars: 1 amine (or outer) side, 2 acyl side, 3 side chain; on linkers, the order of the positions; unused ones are H or OH. Bridge positions count the residues as written; N and C are the ends. Square brackets hold non-standard residues; d marks the D form. Side chains are listed from the residue outwards. Ends that are not written are not given here. * marks the point of attachment. C18 diacid = O=C(O)CCCCCCCCCCCCCCCCC(=O)*; γGlu = O=C(O)[C@H](CCC(=O)[*:2])N[*:1]; Aib = CC(C)(N)C(=O)O

What was measured:
[1] = target: T1, human amylin receptor (calcitonin receptor co-expressed with receptor activity modifying protein, RAMP3) (human, UniProt P30988 25-474; O60896 24-148); test: cell-based or functional assay
T1 sequence (looked up) 1: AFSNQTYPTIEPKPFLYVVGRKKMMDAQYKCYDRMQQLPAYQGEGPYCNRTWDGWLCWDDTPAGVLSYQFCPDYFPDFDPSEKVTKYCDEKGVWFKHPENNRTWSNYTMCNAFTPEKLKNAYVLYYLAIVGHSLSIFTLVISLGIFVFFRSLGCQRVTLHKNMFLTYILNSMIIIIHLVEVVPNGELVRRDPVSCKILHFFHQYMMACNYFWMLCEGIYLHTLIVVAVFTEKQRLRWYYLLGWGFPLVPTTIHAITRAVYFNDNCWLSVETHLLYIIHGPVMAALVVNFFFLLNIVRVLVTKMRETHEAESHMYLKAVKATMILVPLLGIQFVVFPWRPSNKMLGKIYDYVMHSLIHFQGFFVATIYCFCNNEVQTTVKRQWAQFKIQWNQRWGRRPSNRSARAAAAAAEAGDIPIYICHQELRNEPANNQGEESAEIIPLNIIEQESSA
T1 sequence (looked up) 2: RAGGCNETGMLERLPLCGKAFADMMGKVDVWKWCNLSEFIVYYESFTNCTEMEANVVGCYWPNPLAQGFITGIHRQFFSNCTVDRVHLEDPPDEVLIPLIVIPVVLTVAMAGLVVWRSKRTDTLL

[2] = target: T2, human calcitonin receptor (human, UniProt P30988 25-474); test: cell-based or functional assay
T2 sequence (looked up): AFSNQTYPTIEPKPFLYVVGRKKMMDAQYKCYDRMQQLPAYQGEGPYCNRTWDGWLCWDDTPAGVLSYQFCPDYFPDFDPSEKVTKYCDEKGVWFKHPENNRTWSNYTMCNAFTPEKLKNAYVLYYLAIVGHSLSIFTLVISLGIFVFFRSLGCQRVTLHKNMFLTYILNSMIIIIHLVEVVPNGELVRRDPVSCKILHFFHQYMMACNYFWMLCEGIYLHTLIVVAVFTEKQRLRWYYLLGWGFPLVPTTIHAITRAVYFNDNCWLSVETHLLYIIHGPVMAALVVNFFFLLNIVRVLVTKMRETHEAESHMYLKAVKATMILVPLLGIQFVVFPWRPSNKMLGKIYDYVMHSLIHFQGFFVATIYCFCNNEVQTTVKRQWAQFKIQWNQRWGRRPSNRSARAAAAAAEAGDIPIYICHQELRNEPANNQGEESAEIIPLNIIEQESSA

B1: Peptide 92 (SEQ ID NO: 92) (peptide)
peptide: K([γGlu-γGlu-C18 diacid])CNTATCATQRLANFLRHSS[Aib]NFGPILPPTNVGS[Aib]TY-NH2
modifications: disulfide 2-7; N-terminus assumed
SMILES: CC[C@H](C)[C@H](NC(=O)[C@@H]1CCCN1C(=O)CNC(=O)[C@H](Cc1ccccc1)NC(=O)[C@H](CC(N)=O)NC(=O)C(C)(C)NC(=O)[C@H](CO)NC(=O)[C@H](CO)NC(=O)[C@H](Cc1c[nH]cn1)NC(=O)[C@H](CCCNC(=N)N)NC(=O)[C@H](CC(C)C)NC(=O)[C@H](Cc1ccccc1)NC(=O)[C@H](CC(N)=O)NC(=O)[C@H](C)NC(=O)[C@H](CC(C)C)NC(=O)[C@H](CCCNC(=N)N)NC(=O)[C@H](CCC(N)=O)NC(=O)[C@@H](NC(=O)[C@H](C)NC(=O)[C@@H]1CSSC[C@H](NC(=O)[C@@H](N)CCCCNC(=O)CC[C@H](NC(=O)CC[C@H](NC(=O)CCCCCCCCCCCCCCCCC(=O)O)C(=O)O)C(=O)O)C(=O)N[C@@H](CC(N)=O)C(=O)N[C@@H]([C@@H](C)O)C(=O)N[C@@H](C)C(=O)N[C@@H]([C@@H](C)O)C(=O)N1)[C@@H](C)O)C(=O)N[C@@H](CC(C)C)C(=O)N1CCC[C@H]1C(=O)N1CCC[C@H]1C(=O)N[C@H](C(=O)N[C@@H](CC(N)=O)C(=O)N[C@H](C(=O)NCC(=O)N[C@@H](CO)C(=O)NC(C)(C)C(=O)N[C@H](C(=O)N[C@@H](Cc1ccc(O)cc1)C(N)=O)[C@@H](C)O)C(C)C)[C@@H](C)O
EC50 (cAMP production) [1]: 0.341 nM
Ratio (EC50 hCTR / EC50 hAMYR3) [1]: 130
EC50 (cAMP production) [2]: 44.4 nM

K([γGlu-γGlu-C18 diacid])CNTATCATQRLANFLVHSS[Aib]NFGPILPPT[Aib]VGSNTY-NH2 (disulfide 2-7) [Peptide 89 (SEQ ID NO: 89)]
EC50 (cAMP production) [1]: 0.447 nM
Ratio (EC50 hCTR / EC50 hAMYR3) [1]: 18
EC50 (cAMP production) [2]: 8.24 nM

B2: Peptide 91 (SEQ ID NO: 91) (peptide)
peptide: K([γGlu-γGlu-C18 diacid])CNTATCATQRLANFLVHSS[Aib]NFGPILPPTNVGS[Aib]TY-NH2
modifications: disulfide 2-7; N-terminus assumed
SMILES: CC[C@H](C)[C@H](NC(=O)[C@@H]1CCCN1C(=O)CNC(=O)[C@H](Cc1ccccc1)NC(=O)[C@H](CC(N)=O)NC(=O)C(C)(C)NC(=O)[C@H](CO)NC(=O)[C@H](CO)NC(=O)[C@H](Cc1c[nH]cn1)NC(=O)[C@@H](NC(=O)[C@H](CC(C)C)NC(=O)[C@H](Cc1ccccc1)NC(=O)[C@H](CC(N)=O)NC(=O)[C@H](C)NC(=O)[C@H](CC(C)C)NC(=O)[C@H](CCCNC(=N)N)NC(=O)[C@H](CCC(N)=O)NC(=O)[C@@H](NC(=O)[C@H](C)NC(=O)[C@@H]1CSSC[C@H](NC(=O)[C@@H](N)CCCCNC(=O)CC[C@H](NC(=O)CC[C@H](NC(=O)CCCCCCCCCCCCCCCCC(=O)O)C(=O)O)C(=O)O)C(=O)N[C@@H](CC(N)=O)C(=O)N[C@@H]([C@@H](C)O)C(=O)N[C@@H](C)C(=O)N[C@@H]([C@@H](C)O)C(=O)N1)[C@@H](C)O)C(C)C)C(=O)N[C@@H](CC(C)C)C(=O)N1CCC[C@H]1C(=O)N1CCC[C@H]1C(=O)N[C@H](C(=O)N[C@@H](CC(N)=O)C(=O)N[C@H](C(=O)NCC(=O)N[C@@H](CO)C(=O)NC(C)(C)C(=O)N[C@H](C(=O)N[C@@H](Cc1ccc(O)cc1)C(N)=O)[C@@H](C)O)C(C)C)[C@@H](C)O
EC50 (cAMP production) [1]: 0.2 nM
Ratio (EC50 hCTR / EC50 hAMYR3) [1]: 12
EC50 (cAMP production) [2]: 2.36 nM

B3: Peptide 88 (SEQ ID NO: 88) (peptide)
peptide: K([γGlu-C18 diacid])KCNTATCATQRLANFLVHSS[Aib]NFGPIL[Aib]PTNVGSNTY-NH2
modifications: disulfide 3-8; N-terminus assumed
SMILES: CC[C@H](C)[C@H](NC(=O)[C@@H]1CCCN1C(=O)CNC(=O)[C@H](Cc1ccccc1)NC(=O)[C@H](CC(N)=O)NC(=O)C(C)(C)NC(=O)[C@H](CO)NC(=O)[C@H](CO)NC(=O)[C@H](Cc1c[nH]cn1)NC(=O)[C@@H](NC(=O)[C@H](CC(C)C)NC(=O)[C@H](Cc1ccccc1)NC(=O)[C@H](CC(N)=O)NC(=O)[C@H](C)NC(=O)[C@H](CC(C)C)NC(=O)[C@H](CCCNC(=N)N)NC(=O)[C@H](CCC(N)=O)NC(=O)[C@@H](NC(=O)[C@H](C)NC(=O)[C@@H]1CSSC[C@H](NC(=O)[C@H](CCCCN)NC(=O)[C@@H](N)CCCCNC(=O)CC[C@H](NC(=O)CCCCCCCCCCCCCCCCC(=O)O)C(=O)O)C(=O)N[C@@H](CC(N)=O)C(=O)N[C@@H]([C@@H](C)O)C(=O)N[C@@H](C)C(=O)N[C@@H]([C@@H](C)O)C(=O)N1)[C@@H](C)O)C(C)C)C(=O)N[C@@H](CC(C)C)C(=O)NC(C)(C)C(=O)N1CCC[C@H]1C(=O)N[C@H](C(=O)N[C@@H](CC(N)=O)C(=O)N[C@H](C(=O)NCC(=O)N[C@@H](CO)C(=O)N[C@@H](CC(N)=O)C(=O)N[C@H](C(=O)N[C@@H](Cc1ccc(O)cc1)C(N)=O)[C@@H](C)O)C(C)C)[C@@H](C)O
EC50 (cAMP production) [1]: 0.281 nM
Ratio (EC50 hCTR / EC50 hAMYR3) [1]: 4
EC50 (cAMP production) [2]: 1.17 nM

B4: Peptide 90 (SEQ ID NO: 90) (peptide)
peptide: K([γGlu-γGlu-C18 diacid])CNTATCATQRLANFLRHSS[Aib]NFGPILPPT[Aib]VGSNTY-NH2
modifications: disulfide 2-7; N-terminus assumed
SMILES: CC[C@H](C)[C@H](NC(=O)[C@@H]1CCCN1C(=O)CNC(=O)[C@H](Cc1ccccc1)NC(=O)[C@H](CC(N)=O)NC(=O)C(C)(C)NC(=O)[C@H](CO)NC(=O)[C@H](CO)NC(=O)[C@H](Cc1c[nH]cn1)NC(=O)[C@H](CCCNC(=N)N)NC(=O)[C@H](CC(C)C)NC(=O)[C@H](Cc1ccccc1)NC(=O)[C@H](CC(N)=O)NC(=O)[C@H](C)NC(=O)[C@H](CC(C)C)NC(=O)[C@H](CCCNC(=N)N)NC(=O)[C@H](CCC(N)=O)NC(=O)[C@@H](NC(=O)[C@H](C)NC(=O)[C@@H]1CSSC[C@H](NC(=O)[C@@H](N)CCCCNC(=O)CC[C@H](NC(=O)CC[C@H](NC(=O)CCCCCCCCCCCCCCCCC(=O)O)C(=O)O)C(=O)O)C(=O)N[C@@H](CC(N)=O)C(=O)N[C@@H]([C@@H](C)O)C(=O)N[C@@H](C)C(=O)N[C@@H]([C@@H](C)O)C(=O)N1)[C@@H](C)O)C(=O)N[C@@H](CC(C)C)C(=O)N1CCC[C@H]1C(=O)N1CCC[C@H]1C(=O)N[C@H](C(=O)NC(C)(C)C(=O)N[C@H](C(=O)NCC(=O)N[C@@H](CO)C(=O)N[C@@H](CC(N)=O)C(=O)N[C@H](C(=O)N[C@@H](Cc1ccc(O)cc1)C(N)=O)[C@@H](C)O)C(C)C)[C@@H](C)O
EC50 (cAMP production) [1]: 1.06 nM
Ratio (EC50 hCTR / EC50 hAMYR3) [1]: 15
EC50 (cAMP production) [2]: 15.6 nM

B5: Peptide 87 (SEQ ID NO: 87) (peptide)
peptide: K([γGlu-C18 diacid])KCNTATCATQRLANFL[Aib]HSS[Aib]NFGPILPPTNVGSNTP-NH2
modifications: disulfide 3-8; N-terminus assumed
SMILES: CC[C@H](C)[C@H](NC(=O)[C@@H]1CCCN1C(=O)CNC(=O)[C@H](Cc1ccccc1)NC(=O)[C@H](CC(N)=O)NC(=O)C(C)(C)NC(=O)[C@H](CO)NC(=O)[C@H](CO)NC(=O)[C@H](Cc1c[nH]cn1)NC(=O)C(C)(C)NC(=O)[C@H](CC(C)C)NC(=O)[C@H](Cc1ccccc1)NC(=O)[C@H](CC(N)=O)NC(=O)[C@H](C)NC(=O)[C@H](CC(C)C)NC(=O)[C@H](CCCNC(=N)N)NC(=O)[C@H](CCC(N)=O)NC(=O)[C@@H](NC(=O)[C@H](C)NC(=O)[C@@H]1CSSC[C@H](NC(=O)[C@H](CCCCN)NC(=O)[C@@H](N)CCCCNC(=O)CC[C@H](NC(=O)CCCCCCCCCCCCCCCCC(=O)O)C(=O)O)C(=O)N[C@@H](CC(N)=O)C(=O)N[C@@H]([C@@H](C)O)C(=O)N[C@@H](C)C(=O)N[C@@H]([C@@H](C)O)C(=O)N1)[C@@H](C)O)C(=O)N[C@@H](CC(C)C)C(=O)N1CCC[C@H]1C(=O)N1CCC[C@H]1C(=O)N[C@H](C(=O)N[C@@H](CC(N)=O)C(=O)N[C@H](C(=O)NCC(=O)N[C@@H](CO)C(=O)N[C@@H](CC(N)=O)C(=O)N[C@H](C(=O)N1CCC[C@H]1C(N)=O)[C@@H](C)O)C(C)C)[C@@H](C)O
EC50 (cAMP production) [1]: 0.071 nM
Ratio (EC50 hCTR / EC50 hAMYR3) [1]: 1
EC50 (cAMP production) [2]: 0.074 nM

B6: Peptide 94 (SEQ ID NO: 94) (peptide)
peptide: K([γGlu-C18 diacid])KCNTATCATQRLANFL[Aib]HSSNNFGP[Aib]LPPTNVGSNTY-NH2
modifications: disulfide 3-8; N-terminus assumed
SMILES: CC(C)C[C@H](NC(=O)[C@H](CCCNC(=N)N)NC(=O)[C@H](CCC(N)=O)NC(=O)[C@@H](NC(=O)[C@H](C)NC(=O)[C@@H]1CSSC[C@H](NC(=O)[C@H](CCCCN)NC(=O)[C@@H](N)CCCCNC(=O)CC[C@H](NC(=O)CCCCCCCCCCCCCCCCC(=O)O)C(=O)O)C(=O)N[C@@H](CC(N)=O)C(=O)N[C@@H]([C@@H](C)O)C(=O)N[C@@H](C)C(=O)N[C@@H]([C@@H](C)O)C(=O)N1)[C@@H](C)O)C(=O)N[C@@H](C)C(=O)N[C@@H](CC(N)=O)C(=O)N[C@@H](Cc1ccccc1)C(=O)N[C@@H](CC(C)C)C(=O)NC(C)(C)C(=O)N[C@@H](Cc1c[nH]cn1)C(=O)N[C@@H](CO)C(=O)N[C@@H](CO)C(=O)N[C@@H](CC(N)=O)C(=O)N[C@@H](CC(N)=O)C(=O)N[C@@H](Cc1ccccc1)C(=O)NCC(=O)N1CCC[C@H]1C(=O)NC(C)(C)C(=O)N[C@@H](CC(C)C)C(=O)N1CCC[C@H]1C(=O)N1CCC[C@H]1C(=O)N[C@H](C(=O)N[C@@H](CC(N)=O)C(=O)N[C@H](C(=O)NCC(=O)N[C@@H](CO)C(=O)N[C@@H](CC(N)=O)C(=O)N[C@H](C(=O)N[C@@H](Cc1ccc(O)cc1)C(N)=O)[C@@H](C)O)C(C)C)[C@@H](C)O
EC50 (cAMP production) [1]: 0.322 nM
Ratio (EC50 hCTR / EC50 hAMYR3) [1]: 6
EC50 (cAMP production) [2]: 1.9 nM
